Assay results reported in patent publication US20130336924A1 (ALKERMES, published 2013).

B1: RDB1503 (ligand)
chain: QNQWLQDMTTHLILRSFKEFLQSSLRALRQMSGGSGGGSSERIDKQIRYILDGISALRKETCNKSNMCESSKEALAENNLNLPKMAEKDGCFQSGFNEETCLVKIITGLLEFEVYLEYLQNRFESSEEQARAVQMSTKVLIQFLQKKAKNLDAITTPDPTTNASLLTKLQ

Key:
[1] = target: T1, IL-6Rα on HEK-Blue IL-6 cells (human, UniProt P08887 20-468); test: cell-based or functional assay
T1 sequence (looked up): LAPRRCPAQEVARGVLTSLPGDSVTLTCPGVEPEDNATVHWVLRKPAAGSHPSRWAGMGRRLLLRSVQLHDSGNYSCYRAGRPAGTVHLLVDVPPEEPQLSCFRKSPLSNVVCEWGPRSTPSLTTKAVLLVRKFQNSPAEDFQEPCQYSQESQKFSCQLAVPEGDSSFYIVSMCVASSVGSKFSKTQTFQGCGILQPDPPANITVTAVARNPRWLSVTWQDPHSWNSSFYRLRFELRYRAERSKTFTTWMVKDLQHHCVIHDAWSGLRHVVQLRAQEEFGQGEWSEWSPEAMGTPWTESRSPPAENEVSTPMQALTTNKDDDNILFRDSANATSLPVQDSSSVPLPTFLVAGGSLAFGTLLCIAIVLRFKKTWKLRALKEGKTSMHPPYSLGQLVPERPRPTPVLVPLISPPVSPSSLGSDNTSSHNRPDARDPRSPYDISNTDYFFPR

[2] = target: T2, gp130 on HEK-Blue IL-6 cells (human, UniProt P40189 23-918); test: cell-based or functional assay
T2 sequence: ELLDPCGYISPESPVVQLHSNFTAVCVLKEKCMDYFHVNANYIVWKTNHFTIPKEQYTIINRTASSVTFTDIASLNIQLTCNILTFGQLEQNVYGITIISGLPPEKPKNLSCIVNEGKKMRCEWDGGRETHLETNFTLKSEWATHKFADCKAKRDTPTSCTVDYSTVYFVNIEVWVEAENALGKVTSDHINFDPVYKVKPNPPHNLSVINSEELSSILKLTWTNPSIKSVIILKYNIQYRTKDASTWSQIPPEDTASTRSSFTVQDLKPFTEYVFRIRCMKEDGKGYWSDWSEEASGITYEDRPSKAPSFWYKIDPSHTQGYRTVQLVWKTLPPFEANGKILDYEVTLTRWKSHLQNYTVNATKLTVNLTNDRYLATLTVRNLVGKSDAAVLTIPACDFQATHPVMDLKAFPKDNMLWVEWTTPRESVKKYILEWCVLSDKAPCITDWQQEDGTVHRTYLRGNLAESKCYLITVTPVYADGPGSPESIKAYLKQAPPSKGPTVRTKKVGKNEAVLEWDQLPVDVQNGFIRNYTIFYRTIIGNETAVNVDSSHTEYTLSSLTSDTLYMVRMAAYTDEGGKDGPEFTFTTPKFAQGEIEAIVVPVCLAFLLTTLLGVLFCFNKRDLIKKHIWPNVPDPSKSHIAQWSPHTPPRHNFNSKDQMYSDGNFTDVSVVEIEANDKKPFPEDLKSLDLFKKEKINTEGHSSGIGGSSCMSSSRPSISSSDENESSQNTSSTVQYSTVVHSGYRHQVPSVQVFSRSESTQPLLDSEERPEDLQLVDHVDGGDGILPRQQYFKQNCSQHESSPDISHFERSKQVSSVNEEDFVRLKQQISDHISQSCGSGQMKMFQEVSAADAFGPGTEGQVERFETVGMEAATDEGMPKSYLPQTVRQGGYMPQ

Row | Molecule | EC50, IL-6-induced SEAP reporter in HEK-Blue IL-6 cells (agonist activity) [1] | EC50, IL-6-induced SEAP reporter in HEK-Blue IL-6 cells (agonist activity) [2]
1 | IL-6 (from UniProt P05231 30-212) (ligand) | 1 pM | –
2 | B1 | ~0.6 pM | ~0.6 pM
